The series relates to T1, hADAR2-R2D E488Q E488Q (Homo sapiens), P78563-2.
T1 sequence: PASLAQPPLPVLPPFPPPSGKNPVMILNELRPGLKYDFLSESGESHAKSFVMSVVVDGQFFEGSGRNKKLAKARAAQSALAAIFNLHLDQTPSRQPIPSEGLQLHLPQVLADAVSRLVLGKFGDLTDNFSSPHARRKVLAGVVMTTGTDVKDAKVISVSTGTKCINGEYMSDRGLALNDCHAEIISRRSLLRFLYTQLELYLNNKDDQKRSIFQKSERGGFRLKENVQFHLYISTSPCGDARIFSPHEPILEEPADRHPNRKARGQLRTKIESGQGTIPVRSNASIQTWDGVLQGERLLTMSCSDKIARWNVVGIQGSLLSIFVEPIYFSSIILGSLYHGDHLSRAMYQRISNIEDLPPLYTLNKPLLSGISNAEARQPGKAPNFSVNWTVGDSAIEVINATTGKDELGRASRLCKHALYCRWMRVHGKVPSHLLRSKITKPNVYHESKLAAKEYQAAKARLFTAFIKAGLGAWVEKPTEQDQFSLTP
Nature of the series: EMSA. The conditions noted are these: N at position 13 of strand 1 = 8-azanebularine; EMSA: labeled strand hybridized to complement 1:3 in 1X TE pH 7.5; protein 0.25-256 nM (GG) or 0-260 nM (UA); binding buffer, salt and temperature not given in ….

On to “GCUCGCGAUGCUNGAGGGCUCUGAUAGCUACG / CGUAGCUAUCAGAGCCCCCCAGCAUCGCGAGC [GLI1 (UA) 32mer, azaN]”, for which the Kd is 0.9 nM.

As for “GCUCGCGAUGCGNGAGGGCUCUGAUAGCUACG / CGUAGCUAUCAGAGCCCCCCGGCAUCGCGAGC [GLI1 (GG) 32mer, azaN]”, the Kd came out at 6 nM.

Source of the values: article PMC9638939.
